The record followed here is patent US20150152406A1 (NBE THERAPEUTICS, published 2015).

The test concerns the target T1, 6xHis-tagged, recombinant human CD30 (Sino Biological Inc., order #10777-H08H) (human, UniProt P28908 19-379).
T1 construct: Bought soluble reagent; It was detected with biotinylated anti-His-tag antibody and streptavidin-PE; also called CD30 antigen; CD30-6xHis
T1 sequence: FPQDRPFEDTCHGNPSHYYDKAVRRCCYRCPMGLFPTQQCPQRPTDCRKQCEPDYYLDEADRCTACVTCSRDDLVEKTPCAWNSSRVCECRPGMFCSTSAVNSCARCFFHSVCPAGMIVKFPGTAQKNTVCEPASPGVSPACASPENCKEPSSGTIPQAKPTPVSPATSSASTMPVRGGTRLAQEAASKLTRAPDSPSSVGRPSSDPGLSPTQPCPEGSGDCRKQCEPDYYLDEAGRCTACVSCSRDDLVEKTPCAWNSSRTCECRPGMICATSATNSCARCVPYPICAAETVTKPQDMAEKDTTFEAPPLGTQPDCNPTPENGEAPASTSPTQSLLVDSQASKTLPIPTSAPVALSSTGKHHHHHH
As to the kind of experiment: flow cytometry; 63-12 cells displaying anti-CD19 IgG as background, stained with His-tagged CD30 / anti-His-biotin / strep-PE.

Method: After the final FACS staining, the cells were again washed twice in ice-cold PBS, 2% FCS, and then resuspended in 1.0 ml PBS, 2% FCS, after which the cells were subjected to FACS analysis and cell sorting of Ig-kappaLC/CD30 positive cells (see FIG. 13).

B1: humanized anti-human CD19 antibody hBU12, membrane bound human IgG1 on the surface of 63-12 proB cells (antibody, V domains shown)
VH: QVQLQESGPGLVKPSQTLSLTCTVSGGSISTSGMGVGWIRQHPGKGLEWIGHIWWDDDKRYNPALKSRVTISVDTSKNQFSLKLSSVTAADTAVYYCARMELWSYYFDYWGQGTLVTVSS
VL: EIVLTQSPATLSLSPGERATLSCSASSSVSYMHWYQQKPGQAPRLLIYDTSKLASGIPARFSGSGSGTDFTLTISSLEPEDVAVYYCFQGSVYPFTFGQGTKLEIK
notes: also called anti-CD19 mAb hBU12; anti-CD19 mAb
Regarding B1, the binding result is “no binding (tested: 0.1 µg CD30 in 1 ml)”.
